Measured values taken from patent publication US20130156770A1 (published 2013).

Tests used:
Assay in all cases: SPR (Biacore)
BC 247-C3 x CD3 = biological target: BC 247-C3 x CD3
BC 244-C6 x CD3 = biological target: BC 244-C6 x CD3
BCMA-107 x CD3 = biological target: BCMA-107 x CD3

Kd (BC 247-C3 x CD3): 0.4 nM
Kd (BC 244-C6 x CD3): 0.3 nM
Kd (BCMA-107 x CD3): 34.2 nM
B1: Human BCMA (receptor)
chain: MLQMAGQCSQNEYFDSLLHACIPCQLRCSSNTPPLTCQRYCNASVTNSVKGTNAILWTCLGLSLIISLAVFVLMFLLRKINSEPLKDEFKNTGSGLLGMANIDLEKSRTGDEIILPRGLEYTVEECTCEDCIKSKPKVDSDHCFPLPAMEEGATILVTTKTNDYCKSLPAALSATEIEKSISAR
